Laboratory results taken from patent US20150299314A1 (TORAY INDUSTRIES, published 2015).
Where a chain is given by its changes, count along the chain named. One block for each binder: values may come before it.

Tests used:
[1] = target: T1, CAPRIN-1 protein expressed on the cell surface of human cancer cells (human, UniProt Q14444 2-709); assay: cell-based or functional assay
T1 sequence (looked up): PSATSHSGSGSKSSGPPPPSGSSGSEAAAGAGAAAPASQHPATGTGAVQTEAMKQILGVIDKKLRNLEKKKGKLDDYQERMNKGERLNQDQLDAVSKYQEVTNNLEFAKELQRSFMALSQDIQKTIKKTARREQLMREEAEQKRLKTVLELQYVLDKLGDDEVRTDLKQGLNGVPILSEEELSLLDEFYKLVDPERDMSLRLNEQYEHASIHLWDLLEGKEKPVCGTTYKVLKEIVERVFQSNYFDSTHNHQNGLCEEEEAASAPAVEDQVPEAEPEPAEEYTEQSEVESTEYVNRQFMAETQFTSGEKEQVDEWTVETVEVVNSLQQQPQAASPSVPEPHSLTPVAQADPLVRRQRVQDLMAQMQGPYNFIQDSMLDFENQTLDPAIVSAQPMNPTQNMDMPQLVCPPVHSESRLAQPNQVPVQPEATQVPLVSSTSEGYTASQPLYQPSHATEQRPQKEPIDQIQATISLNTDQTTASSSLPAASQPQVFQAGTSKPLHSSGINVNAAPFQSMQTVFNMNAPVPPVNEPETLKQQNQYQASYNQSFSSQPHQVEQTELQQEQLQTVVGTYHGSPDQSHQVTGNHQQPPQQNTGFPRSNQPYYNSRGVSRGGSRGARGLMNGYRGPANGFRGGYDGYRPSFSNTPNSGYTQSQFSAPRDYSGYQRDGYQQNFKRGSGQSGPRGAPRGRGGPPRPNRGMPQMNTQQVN

[2] = target: T1, CAPRIN-1 protein expressed on the cell …; assay: flow cytometry, TGBC14TKB cells, culture supernatant, isotype control antibody as control
Experimental: Subsequently, a gallbladder cell line TGBC14TKB, which was confirmed to express a CAPRIN-1 gene, was investigated for whether or not a CAPRIN-1 protein is expressed on the surfaces of these cells. 1×10⁶ cells of TGBC14TKB were centrifuged with a 1.5-mL micro centrifugation tube. To the cells was added the culture supernatant (100 μL) containing any of anti-CAPRIN-1 mouse monoclonal antibodies #1 to #22 reacting to cancer cell surface produced in Example 4 and anti-CAPRIN-1 mouse-chicken chimeric antibodies #1 to #3 produced in the above (2), followed by being left to stand on ice for 1 hour. After washing with PBS, the cells were suspended in a FITC-labeled goat anti-mouse IgG antibody (manufactured by life technologies) diluted by 500-fold with PBS containing 0.1% FBS, followed by being left to stand on ice for 1 hour. After washing with PBS, the fluorescence intensity was measured with FACS Calibur available from Becton, Dickinson and Company. Separately, as a control, the same procedure as in above was performed using an iso-type control antibody, instead of the culture supernatants containing the anti-CAPRIN-1 mouse monoclonal antibodies #1 to #22 and the mouse-chicken chimeric antibodies #1 to #3. As a result, the fluorescence intensity in the cells to which any of the monoclonal antibodies #1 to #22 and the mouse-chicken chimeric antibodies #1 to #3 was added was 20% or more higher than that in the control in every case. Specifically, in the case of using mouse-chicken chimeric antibody #1, the fluorescence intensity was enhanced by 200% or more. […] The rate of increase in the fluorescence intensity is represented by the rate of increase in the mean fluorescence intensity (MFI value) in each cell and is calculated by the following calculation formula: […]

B1: human-mouse chimeric anti-CAPRIN-1 antibody #30 (antibody)
heavy: not shown
light: DVQITQSPSYLAASPGETITINCRASKSISKYLAWYQEKPGKTNKLLIYSGSTLQSGIPSRFSGSGSGTDFTLTISSLEPEDFAMYYCQQHNEYPYTFGGGTKLEIKRTVAAPSVFIFPPSDEQLKSGTASVVCLLNNFYPREAKVQWKVDNALQSGNSQESVTEQDSKDSTYSLSSTLTLSKADYEKHKVYACEVTHQGLSSPVTKSFNRGEC
ADCC activity (cytotoxicity, 51Cr release) on TGBC14TKB, antibody 5 ug/mL, human NK cells [1]: ≥ 20%

B2: human-mouse chimeric anti-CAPRIN-1 antibody #31 (antibody, human IgG1, kappa)
heavy: not shown
light: B1 light with Y96W
ADCC activity (cytotoxicity, 51Cr release) on TGBC14TKB, antibody 5 ug/mL, human NK cells [1]: ≥ 20%

B5: human-mouse chimeric anti-CAPRIN-1 antibody #26 (antibody, human IgG1, kappa)
heavy: not shown
light: PASSSDVLMTQTPLSLPVRLGDQSSISCRSSQSIVHSNGNTYLEWYLQKPGQSPKLLIYKVSNRFSGVPDRFSGSGSGTDFTLKISRVEPEDLGVYYCFQGSHVPYTSEGDQAEIKLATVAAPSVFIFPPSDEQLKSGTASVVCLLNNFYPREAKVQWKVDNALQSGNSQESVTEQDSKDSTYSLSSTLTLSKADYEKHKVYACEVTHQGLSSPVTKSFNRGEC
ADCC activity on TGBC14TKB, method as in Example 12 [1]: ≥ 20%

B6: human-mouse chimeric anti-CAPRIN-1 antibody #34 (antibody, human IgG1, kappa, V domains shown)
VH: GAELVRPGTSVKVSCKASVYAFTNYLIEWVKQRPGQGLEWIGVINPKSGGTKYNEKFRGKATLTADKSSSTAYMQLSSLTSGDSAVYFCAITGTDYWGQGTTLTVSS
VL: QGTRCDIQMTQTTSSLSASLGDRVTISCSASQGINNYLNWYQQKPDGTVKLLIYYTSSLRSGVPSRFSGSGSGTDYSLTISNLEPEDVATYYCQQYSKLPRTFGGGTKLEIKR
ADCC activity (cytotoxicity, 51Cr release) on TGBC14TKB, antibody 5 ug/mL, human NK cells [1]: ≥ 20%

B7: human-mouse chimeric anti-CAPRIN-1 antibody #36 (antibody, human IgG1, kappa)
heavy: not shown
light: QDELSNPVTSGESVSISCRSSKSLLYKDGKTYLNWFLQRPGQSPQLLIYLMSTRASGVSDRFSGSGSGTDFTLEISRVKAEDVGVYYCQQLVEDPLTFGAGTKLELKRTVAAPSVFIFPPSDEQLKSGTASVVCLLNNFYPREAKVQWKVDNALQSGNSQESVTEQDSKDSTYSLSSTLTLSKADYEKHKVYACEVTHQGLSSPVTKSFNRGEC
ADCC activity (cytotoxicity, 51Cr release) on TGBC14TKB, antibody 5 ug/mL, human NK cells [1]: ≥ 20%

B8: human-mouse chimeric anti-CAPRIN-1 antibody #29 (antibody, human IgG1, kappa)
heavy: not shown
light: GTCGDIVMSQSPSSLAVSAGEKVTMSCKSSQSLLNSRTRKNYLAWVQHKPGQSPRLLIYWASTRESGVPDRFTGSGSGTDFTLTISSVQAEDLAVYYCRQSYNLVTFGAGPSTVAAPSVFIFPPSDEQLKSGTASVVCLLNNFYPREAKVQWKVDNALQSGNSQESVTEQDSKDSTYSLSSTLTLSKADYEKHKVYACEVTHQGLSSPVTKSFNRGEC
ADCC activity on TGBC14TKB, method as in Example 12 [1]: ≥ 20%

B9: mouse monoclonal antibody #8 (antibody, V domains shown)
VH: GGGLVKPGGSLKLSCAASGFAFSSYDMSWIRQTPEKRLEWVAYISSGAGSTYYPDTVKGRFTVSRDNAKNTLYLQMSSLKSEDTAMYYCARHFYRFDYWGQGTTVTVSS
VL: SIVMTQTPKFLLVSAGDRITITCKASQSVSNDVAWYQQKPGQSPKLLIYYASNRYTGVPDRFTGSGYGTDFTFTISTVQAEDLAVYFCQQDDRFPLTFGAGPS
notes: mouse hybridoma antibody; also called anti-CAPRIN-1 mouse monoclonal antibody #8; anti-CAPRIN-1 monoclonal antibody #8
rate of increase in mean fluorescence intensity over control [2]: ≥ 20%
cytotoxicity (ADCC, 51Cr release) on TGBC14TKB, human NK cells [1]: ≥ 15%

B12: human-chicken chimeric antibody #2 (antibody, human IgG1, kappa, V domains shown)
VH: AVTLDESGGGLQTPGGGLSLVCKASGFTFSSFDMGWVRQAPGKGLEFVAQINDAGSRTWYATAVKGRATISRDNGQTTVRLQLNNLRAEDTGTYYCTRGSGYVGAGAIDAWGHGTEVIVSA
VL: AALTQPSSVSANPGETVKITCSGGSGYYGWYQQQKSPGSAPVTVIYQNDKRPSDIPSRFSGSGSGSTNTLTITGVQAEDEAVYFCGRYDSTDSGIFGAGTTLTVLT
cytotoxicity (ADCC, 51Cr release) on TGBC14TKB, human NK cells [1]: ≥ 15%

B15: human-mouse chimeric anti-CAPRIN-1 antibody #28 (antibody, human IgG1, kappa, V domains shown)
VH: GPDLVKPGASVKISCKASGYSFTAYYMHWVKQSHGKSLEWIGRVNPNNGGTTYNQKFKGKAILTVDKSSSTAYMELRSLTFEDSAVYYCARRIYYGYFDYWGQGTTVTVSS
VL: AFFAVSLGQRATISCKASQSVDYDGDSYMNWYQQKPGQPPKLLIYVASNLESGVPARFSGSGSGTDFTLNIHPVEEEDAATYYCQQSNEDPYTFGGGTKLEIKQ
ADCC activity on TGBC14TKB, method as in Example 12 [1]: ≥ 20%

More lines, main results first:

ADCC activity on TGBC14TKB, method as in Example 12 [1]: ≥ 20%
B3: human-mouse chimeric anti-CAPRIN-1 antibody #25 (antibody, human IgG1, kappa, V domains shown)
VH: GPGLVQPSQSLSITCTVSGFSLTTYDLHWVRQSPGKGLEWLGVIWSGGSTDYNAAFISRLSISKDNSKSQVFFKMNSLQANDTAIYYCARNYGYSAWFAYWGQGTLVTVSA
VL: DVLMTQTPLSLPVSLGDQASISCRSSQSIVHSNGNTYLEWYLQKPGQSPKLLIYKVSNRFSGVPDRFSGSGSGTDFTLKISRVEAEDLGVYYCFQGSHVPLTFGAGTKLELKR

ADCC activity on TGBC14TKB, method as in Example 12 [1]: ≥ 20%
B4: human-mouse chimeric anti-CAPRIN-1 antibody #27 (antibody, human IgG1, kappa, V domains shown)
VH: GGGLVQPGGSMRLSCVASGFTFSNSWFNWVRQSPEKGLEWVAEIRLTSDNYAIYYAESVKGRFTISRDDSKSSVYLQMNNLRAEDTGIYYCTRPETARATFAYWGQGTTVTVSS
VL: B3 VL with L51V, S57F, L101R, A105G, E110N, L111Q, K112T, R113G

rate of increase in mean fluorescence intensity over control [2]: ≥ 20%
B10: mouse-chicken chimeric antibody #3 (antibody, mouse IgG1, V domains shown)
VH: AVTLDESGGGLQTPGGALSLVCKASGFTFSGYDMLWVRQAPGKGLEWVAGIGSTGGGTDYGAAVKGRATISRDNGQSTVRLQLNNLRAEDTATYYCAKVAGGCNSGYCRDSPGSIDAWGHGTEVIVS
VL: AVTQQPASVSANPGETVKITCSGGGSRNYYGWYQQKSPGSVPVTVIYYDDQRPSNIPSRFSGALSGSTSTLTITGVQADDEAVYFCGSADSNTYEGSFGAGTTLTVL
notes: also called anti-CAPRIN-1 mouse-chicken chimeric antibody #3

rate of increase in mean fluorescence intensity over control [2]: ≥ 20%
B11: mouse monoclonal antibody #13 (antibody, V domains shown)
VH: EVQLHQFGAELVKPGASVKISCKASGYTFTDYNMDWVKQSHGKSLEWIGDINPNYDSTSYNQKFKGKATLTVDKSSSTAYMELRSLTSEDTAVYYCARSRSYDYEGFAYWGQGTLVTVSAAKTTPPSVY
VL: AVLRCSRGLLVIWISDIQLTQSPSSLAVTAGEKVTMSCKSSQSLLWSVNQKNYLSWYQQKQRQPPKLLIYGASIRESWVPDRFTGSGSGTDFTLTISNVHAEDLAVYYCQHNHGSFLPSRSEQVPSWRSNNR
notes: mouse hybridoma antibody; also called anti-CAPRIN-1 mouse monoclonal antibody #13; anti-CAPRIN-1 monoclonal antibody #13
cytotoxicity (ADCC, 51Cr release) on TGBC14TKB, human NK cells [1]: ≥ 15%

ADCC activity on TGBC14TKB, method as in Example 12 [1]: ≥ 20%
B13: human-mouse chimeric anti-CAPRIN-1 antibody #23 (antibody, human IgG1, kappa, V domains shown)
VH: GGGLVKPGGSLKLSCAASGFTFSSYGMSWVRQTPEKRLEWVATISSGGSYTYYPDSVKGRFTISRDNAKNTLYLQMSSLRSEDTAMYYCASLASYYFDYWGQGTTLTVSS
VL: GARCDVQMIQSPSSLSASLGDIVTMTCQASQGTSINLNWFQQKPGKAPKLLIYGASSLEDGVPSRFSGSCFGTDFTLTISSLEDEDMATYFCLQHSYLPPLTFGAGTKLELKR

ADCC activity on TGBC14TKB, method as in Example 12 [1]: ≥ 20%
B14: human-mouse chimeric anti-CAPRIN-1 antibody #24 (antibody, human IgG1, kappa, V domains shown)
VH: B13 VH
VL: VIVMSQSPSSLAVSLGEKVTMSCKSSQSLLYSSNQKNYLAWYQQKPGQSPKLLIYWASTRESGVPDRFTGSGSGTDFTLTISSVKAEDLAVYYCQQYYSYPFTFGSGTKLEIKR

rate of increase in mean fluorescence intensity over control [2]: ≥ 20%
B16: mouse-chicken chimeric antibody #2 (antibody, mouse IgG1, V domains shown)
VH: AVTLDESGGGLQTPGGGLSLVCKASGFTFSSFDMGWVRQAPGKGLEFVAQINDAGSRTWYATAVKGRATISRDNGQTTVRLQLNNLRAEDTGTYYCTRGSGYVGAGAIDAWGHGTEVIVS
VL: AALTQPSSVSANPGETVKITCSGGSGYYGWYQQQKSPGSAPVTVIYQNDKRPSDIPSRFSGSGSGSTNTLTITGVQAEDEAVYFCGRYDSTDSGIFGAGTTLTVL
notes: also called anti-CAPRIN-1 mouse-chicken chimeric antibody #2

rate of increase in mean fluorescence intensity over control [2]: ≥ 20%
B17: mouse monoclonal antibody #12 (antibody, V domains shown)
VH: EVQLHQFGAELVKPGASVKISCKASGYTFTDYNMDWVKQSHGKSLEWIGDINPNYDSTSYNQKFKGKATLTVDKSSSTAYMELRSLTSEDTAVYYCARSRSYDYEGFAYWGQGTLVTVSA
VL: DIQMTQSPASLSASVGETVTITCRASGNIHNYLAWYQQKQGKSPQLLVYNAKTLADGVPSRFSGSGSGTQYSLKINSLQPEDFGSYYCQHFWSTLTFGAGTKLELKR
notes: mouse hybridoma antibody; also called anti-CAPRIN-1 mouse monoclonal antibody #12; anti-CAPRIN-1 monoclonal antibody #12
cytotoxicity (ADCC, 51Cr release) on TGBC14TKB, human NK cells [1]: ≥ 15%
